Reference: article PMC8344021, “Discovery of Small Molecule Bak Activator for Lung Cancer Therapy” (Theranostics, 2021)
Several values for one entry are separate records, joined by “and”; a condition that tells them apart may be missing. Equal entries are not always repeated.

Molecular target: T1, Bak (endogenous, mitochondria of A549 cells) (human (endogenous in A549)), Q16611
T1 chain: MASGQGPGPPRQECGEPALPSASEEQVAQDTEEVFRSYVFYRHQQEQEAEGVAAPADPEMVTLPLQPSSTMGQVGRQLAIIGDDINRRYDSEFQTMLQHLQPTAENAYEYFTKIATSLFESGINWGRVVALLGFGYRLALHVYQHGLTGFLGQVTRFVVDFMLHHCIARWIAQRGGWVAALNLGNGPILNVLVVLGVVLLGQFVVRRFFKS
Assay: cross-linking; A549 cells treated with BKA-073 (1 uM) for 24 h; mitochondrial fraction; 10 mM BMH in PBS pH 7.2 with 5 mM EDTA, 1 h at room temperature, quenched with DTT; SDS-PAGE and Western blot with a Bak antibody
Details: remark: other sources report otherwise

stoichiometry N: 2 and 3
B1: Bak (endogenous, mitochondria of A549 cells), Q16611 1-211 (natural protein)
chain: T1 chain
